From patent publication EP1379283B1, “IDENTIFICATION OF TARGET-SPECIFIC FOLDING SITES IN PEPTIDES AND PROTEINS” (Palatin Technologies, Inc., priority 2000, dated 2002) come the findings set out here.

One experiment concerns the target hMC4-R (human) (UniProt P32245). The experiment in a line: competition with 0.4 nM 125I-NDP-alpha-MSH on hMC4-R membranes, metallopeptide at 1 µM.
The next experiment addresses hMC3-R (human) (UniProt P41968). The experiment in a line: competition with 0.4 nM 125I-NDP-alpha-MSH on hMC3-R membranes, metallopeptide at 1 µM.
Another experiment addresses hMC5-R (human) (UniProt P33032). Nature of the experiment: competition with 0.4 nM 125I-NDP-alpha-MSH on hMC5-R membranes, metallopeptide at 1 µM.
The target of experiment [1] is MC1-R of B-16 mouse melanoma cells (mouse) (UniProt Q01727). The experiment in a line: competition with 0.4 nM 125I-NDP-alpha-MSH on B-16 mouse melanoma cell membranes, metallopeptide at 1 µM.
MC1-R of B-16 mouse melanoma cells (mouse), sequence (Q01727 whole entry): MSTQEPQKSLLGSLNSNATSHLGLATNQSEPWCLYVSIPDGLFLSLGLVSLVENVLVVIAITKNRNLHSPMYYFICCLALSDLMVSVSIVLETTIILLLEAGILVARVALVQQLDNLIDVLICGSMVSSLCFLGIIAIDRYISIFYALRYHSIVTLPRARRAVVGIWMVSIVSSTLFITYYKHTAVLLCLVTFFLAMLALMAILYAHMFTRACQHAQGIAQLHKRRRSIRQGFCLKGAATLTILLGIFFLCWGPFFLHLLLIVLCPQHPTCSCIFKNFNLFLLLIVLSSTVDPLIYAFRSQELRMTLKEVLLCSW
For experiment [2], the target named is vasopressin-1 receptor of rat liver cell membranes (rat) (UniProt P30560). The experiment in a line: competition with 3H-vasopressin-1 antagonist on rat liver membranes, metallopeptide at 1 µM.
vasopressin-1 receptor of rat liver cell membranes (rat), sequence (P30560 whole entry): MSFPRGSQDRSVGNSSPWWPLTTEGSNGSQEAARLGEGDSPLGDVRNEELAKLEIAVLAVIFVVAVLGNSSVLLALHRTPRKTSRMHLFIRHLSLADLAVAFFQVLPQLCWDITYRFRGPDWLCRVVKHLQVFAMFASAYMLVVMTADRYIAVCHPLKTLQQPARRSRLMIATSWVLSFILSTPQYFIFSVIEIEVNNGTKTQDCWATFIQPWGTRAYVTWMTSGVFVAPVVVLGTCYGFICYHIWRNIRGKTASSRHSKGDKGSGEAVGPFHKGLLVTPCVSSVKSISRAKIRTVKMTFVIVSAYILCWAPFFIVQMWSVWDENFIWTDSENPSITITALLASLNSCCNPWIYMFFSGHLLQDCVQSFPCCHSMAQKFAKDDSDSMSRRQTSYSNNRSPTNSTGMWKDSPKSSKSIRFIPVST
Experiment [3] deals with oxytocin receptor of rat uterus cell membranes (rat) (UniProt P70536). Nature of the experiment: competition with 3H-oxytocin on rat uterus membranes, metallopeptide at 1 µM.
oxytocin receptor of rat uterus cell membranes (rat), sequence (P70536 whole entry): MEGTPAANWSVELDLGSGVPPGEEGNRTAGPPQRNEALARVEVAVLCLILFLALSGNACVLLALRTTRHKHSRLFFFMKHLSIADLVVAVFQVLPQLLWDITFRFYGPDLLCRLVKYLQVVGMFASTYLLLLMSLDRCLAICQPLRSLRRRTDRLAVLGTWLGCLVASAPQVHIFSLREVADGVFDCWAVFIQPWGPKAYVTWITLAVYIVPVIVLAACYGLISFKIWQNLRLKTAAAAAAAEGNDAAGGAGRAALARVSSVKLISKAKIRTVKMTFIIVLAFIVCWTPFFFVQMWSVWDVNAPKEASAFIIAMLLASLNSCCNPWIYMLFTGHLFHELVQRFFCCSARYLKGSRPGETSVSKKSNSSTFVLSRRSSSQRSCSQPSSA

Square brackets hold non-standard residues; d marks the D form. Ends that are not written are not given here. * marks the point of attachment. Cyclohexylacetyl(1-SH) = O=C(CC1(S)CCCCC1)*; Cyclohexylacetyl = O=C(CC1CCCCC1)*; dChg = N[C@@H](C(=O)O)C1CCCCC1; Chg = N[C@H](C(=O)O)C1CCCCC1; Nle = CCCC[C@H](N)C(=O)O; Orn = NCCC[C@H](N)C(=O)O; Dap = NC[C@H](N)C(=O)O

hMC3-R (human), sequence (P41968 whole entry): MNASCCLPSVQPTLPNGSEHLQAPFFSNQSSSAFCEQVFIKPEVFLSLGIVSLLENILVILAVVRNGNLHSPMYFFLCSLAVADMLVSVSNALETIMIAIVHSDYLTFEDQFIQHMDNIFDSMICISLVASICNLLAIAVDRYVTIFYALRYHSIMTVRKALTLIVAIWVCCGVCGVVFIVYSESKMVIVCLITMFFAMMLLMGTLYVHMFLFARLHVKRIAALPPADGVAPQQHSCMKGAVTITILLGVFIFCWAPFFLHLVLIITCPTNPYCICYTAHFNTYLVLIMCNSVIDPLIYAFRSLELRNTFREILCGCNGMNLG
hMC5-R (human), sequence (P33032 whole entry): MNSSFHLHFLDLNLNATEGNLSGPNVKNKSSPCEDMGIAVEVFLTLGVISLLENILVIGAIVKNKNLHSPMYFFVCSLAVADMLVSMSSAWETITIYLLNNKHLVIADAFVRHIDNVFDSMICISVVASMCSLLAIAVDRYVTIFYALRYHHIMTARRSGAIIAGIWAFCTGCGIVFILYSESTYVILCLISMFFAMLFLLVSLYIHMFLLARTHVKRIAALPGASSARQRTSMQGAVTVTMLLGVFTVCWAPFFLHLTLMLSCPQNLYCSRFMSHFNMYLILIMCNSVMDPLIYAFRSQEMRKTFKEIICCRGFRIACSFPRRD
hMC4-R (human), sequence (P32245 whole entry): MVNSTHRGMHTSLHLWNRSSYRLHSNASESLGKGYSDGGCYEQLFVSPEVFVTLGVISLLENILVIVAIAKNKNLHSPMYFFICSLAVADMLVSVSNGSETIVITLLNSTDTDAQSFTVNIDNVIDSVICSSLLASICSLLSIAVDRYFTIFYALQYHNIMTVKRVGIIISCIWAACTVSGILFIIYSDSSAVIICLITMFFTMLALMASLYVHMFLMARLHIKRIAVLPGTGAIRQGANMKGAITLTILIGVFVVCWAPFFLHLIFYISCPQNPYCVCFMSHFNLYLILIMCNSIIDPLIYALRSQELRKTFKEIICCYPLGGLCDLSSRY

B1: Re-complexed Ac-Nle-Ala-His-Cys-D-Phe-Arg-Trp-NH2 (peptide)
peptide: Ac-[Nle]AHC[dF]RW-NH2
modifications: bridge (positions not given here) via ReOCl3(PPh3)2; also: oxorhenium(V) metal complex
For the molecule B1, the % Inhibition (as a rule, the percentage by which the read-out fell short of the control) at 1 µM with hMC4-R (human) stood at 75%; with hMC3-R (human) it was 9%; in the experiment with hMC5-R (human) it was 58%; in experiment [1] it was 84%.

B2: Re-complexed Ac-Nle-Ala-His-D-Phe-Arg-Cys-Trp-NH2 (peptide)
peptide: XAHFRCW
modifications: N-terminal acetyl; X at 1 = Nle; D-Phe at 4; Cys 6 complexed to a rhenium-oxo (Re) metal ion; C-terminal amide
B2 had a % Inhibition at 1 µM in experiment [1] of 96%.

B3: Re-complexed Caca-D-Trp-Ile-Thr-Dap-Cys-Ala-Pro-Orn-NH2 (peptide)
peptide: Cyclohexylacetyl-[dW]IT[Dap]CAP[Orn]-NH2
modifications: not fully specified (bridges); printed as Caca-D-Trp-Ile-*Thr-Dap-Cys*-Ala-Pro-Orn-NH₂; numbers in words are those of the source; also: Cys6 complexed to rhenium-oxo (Re=O)
Turning to B3, the % Inhibition at 1 µM was 22% in experiment [2] and 9% in experiment [3].

B4: Re-complexed Pmp-D-Trp-Cys-Ile-Thr-Dap-Ala-Pro-Orn-NH2 (peptide)
peptide: {Cyclohexylacetyl(1-SH)}-[dW]CIT[Dap]AP[Orn]-NH2
modifications: not fully specified (bridges); printed as *Pmp-D-Trp-Cys*-Ile-Thr-Dap-Ala-Pro-Orn-NH₂; numbers in words are those of the source; also: Cys3 complexed to rhenium-oxo (Re=O)
Turning to B4, the % Inhibition at 1 µM in experiment [2] is 23%; in experiment [3] it was 0%.

B5: Re-complexed Caca-D-Trp-Ile-Cys-Thr-Dap-Ala-Pro-Orn-NH2 (peptide)
peptide: Cyclohexylacetyl-[dW]ICT[Dap]AP[Orn]-NH2
modifications: not fully specified (bridges); printed as Caca-D-*Trp-Ile-Cys*-Thr-Dap-Ala-Pro-Orn-NH₂; numbers in words are those of the source; also: Cys4 complexed to rhenium-oxo (Re=O)
For the molecule B5, the % Inhibition at 1 µM in experiment [2] was found to be 52%; in experiment [3], 0%.

B6: Re-complexed Caca-D-Trp-Ile-Thr-Cys-Dap-Ala-Pro-Orn-NH2 (peptide)
peptide: Cyclohexylacetyl-[dW]ITC[Dap]AP[Orn]-NH2
modifications: not fully specified (bridges); printed as Caca-D-Trp-*Ile-Thr-Cys*-Dap-Ala-Pro-Orn-NH₂; numbers in words are those of the source; also: Cys5 complexed to rhenium-oxo (Re=O)
Turning to B6, the % Inhibition at 1 µM in experiment [2] and in experiment [3] was 0% throughout.

B7: Re-complexed Ac-Nle-Ala-His-D-Phe-Arg-Trp-Cys-NH2 (peptide)
peptide: Ac-[Nle]AH[dF]RWC-NH2
modifications: bridge (positions not given here) via ReOCl3(PPh3)2; also: oxorhenium(V) metal complex
As for B7, the % Inhibition at 1 µM with hMC4-R (human) is 98%; with hMC3-R (human) it was 70%; in the experiment with hMC5-R (human), 93%; in experiment [1] it was 91%.

B8: Re-complexed Chg-D-Trp-Cys-Ile-Thr-Dap-Ala-Pro-Orn-NH2 (peptide)
peptide: [Chg][dW]CIT[Dap]AP[Orn]-NH2
modifications: not fully specified (bridges); printed as Re-complexed Chg-D-Trp-Cys-Ile-Thr-Dap-Ala-Pro-Orn-NH2; also: Cys3 complexed to rhenium-oxo (Re=O)
On to B8, for which the % Inhibition at 1 µM in experiment [2] and in experiment [3] was 0% each time.

B9: Re-complexed Ac-Nle-Ala-His-D-Phe-Cys-Arg-Trp-NH2 (peptide)
peptide: Ac-[Nle]AH[dF]CRW-NH2
modifications: bridge (positions not given here) via ReOCl3(PPh3)2; also: oxorhenium(V) metal complex
B9: the % Inhibition at 1 µM in the experiment with hMC4-R (human) worked out at 66%; with hMC3-R (human) it was 15%; with hMC5-R (human), 57%; in experiment [1], 93%.

B10: Re-complexed Ac-Nle-Ala-Cys-His-D-Phe-Arg-Trp-NH2 (peptide)
peptide: Ac-[Nle]ACH[dF]RW-NH2
modifications: bridge (positions not given here) via ReOCl3(PPh3)2; also: oxorhenium(V) N3S1 metal chelate (X-X-Cys)
For B10, the % Inhibition at 1 µM with hMC4-R (human) amounted to 71%; in the experiment with hMC3-R (human), 47%; with hMC5-R (human), 64%; in experiment [1], 96%.

B11: Re-complexed D-Chg-D-Trp-Cys-Ile-Thr-Dap-Ala-Pro-Orn-NH2 (peptide)
peptide: [dChg][dW]CIT[Dap]AP[Orn]-NH2
modifications: bridge (positions not given here); not fully specified (bridges); printed as Re-complexed D-Chg-D-Trp-Cys-Ile-Thr-Dap-Ala-Pro-Orn-NH2; also: oxorhenium(V) metal complex
With B11, the % Inhibition at 1 µM in experiment [2] was found to be 8%; in experiment [3], 0%.

B12: Re-complexed Caca-D-Trp-Ile-Thr-Dap-Ala-Cys-Ala-Orn-NH2 (peptide)
peptide: Cyclohexylacetyl-[dW]IT[Dap]ACA[Orn]-NH2
modifications: not fully specified (bridges); printed as Caca-D-Trp-Ile-Thr-*Dap-Ala-Cys*-Ala-Orn-NH₂; numbers in words are those of the source; also: Cys7 complexed to rhenium-oxo (Re=O)
On to B12, for which the % Inhibition at 1 µM in experiment [2] and in experiment [3] was 0% throughout.

B13: Re-complexed Caca-D-Trp-Ile-Thr-Dap-Ala-Ala-Orn-Cys-NH2 (peptide)
peptide: Cyclohexylacetyl-[dW]IT[Dap]AA[Orn]C-NH2
modifications: numbers in words are those of the source; also: rhenium-oxo (Re(V)=O) complex at Cys9
For the molecule B13, the % Inhibition at 1 µM was found to be 23% in experiment [2] and 0% in experiment [3].

B14: Re-complexed Caca-D-Trp-Ile-Thr-Dap-Ala-Ala-Cys-Orn-NH2 (peptide)
peptide: Cyclohexylacetyl-[dW]IT[Dap]AAC[Orn]-NH2
modifications: numbers in words are those of the source; also: rhenium-oxo (Re(V)=O) complex at Cys8
As to B14, the % Inhibition at 1 µM in experiment [2] and in experiment [3] was 0% throughout.

B15: Re-complexed Caca-D-Trp-Ile-Thr-Dap-Ala-Cys-Pro-Orn-NH2 (peptide)
peptide: Cyclohexylacetyl-[dW]IT[Dap]ACP[Orn]-NH2
modifications: not fully specified (bridges); printed as Caca-D-Trp-Ile-Thr-*Dap-Ala-Cys*-Pro-Orn-NH₂; numbers in words are those of the source; also: Cys7 complexed to rhenium-oxo (Re=O)
For the molecule B15, the % Inhibition at 1 µM in experiment [2] and in experiment [3] was 0% in each case.
